In experiment [1] the target is HLA-A*11:01. As to the kind of experiment: IEDB peptide-MHC binding, purified MHC/competitive/fluorescence; filed as Kd, often an IC50 or EC50 that approximates it; ≥ and ≤ were set here for values at or beyond the usual limits of such assays. To be noted: source organism: Rickettsia canadensis.
Experiment [2] concerns the target HLA-A*02:01. As to the kind of experiment: IEDB peptide-MHC binding, purified MHC/direct/fluorescence; filed as Kd, often an IC50 or EC50 that approximates it; ≥ and ≤ were set here for values at or beyond the usual limits of such assays.
Experiment [3] addresses HLA-A*31:01. Described as above.
Experiment [4] has as its target HLA-B*58:01. The experiment is described as above.
Experiment [5] addresses HLA-B*46:01. The description is as above.
In experiment [6] the target is HLA-B*15:17. The experiment is described as above.
In experiment [7] the target is HLA-B*38:01. The experiment is described as above. To be noted: source organism: Candidatus Rickettsia tarasevichiae.
For experiment [8], the target named is HLA-B*48:01. Described as above.
For experiment [9], the target named is HLA-A*03:01. Described as above. To be noted: source organism: Rickettsia canadensis.
Experiment [10] concerns the target HLA-B*08:01. The description is as above.
Experiment [11] concerns the target HLA-A*69:01. The experiment is described as above.
Experiment [12] concerns the target HLA-A*01:01. The experiment is described as above.
Experiment [13] addresses HLA-B*15:01. Described as above.
Experiment [14] has as its target HLA-B*40:01. Described as above. To be noted: source organism: Rickettsia canadensis.
Experiment [15] has as its target HLA-A*26:01. The description is as above. Particulars: source organism: Candidatus Rickettsia tarasevichiae.
The target of experiment [16] is HLA-B*57:01. The description is as above.
Experiment [17] concerns the target HLA-B*15:09. Described as above. Particulars: source organism: Candidatus Rickettsia tarasevichiae.
For experiment [18], the target named is HLA-B*27:05. Described as above.
Experiment [19] deals with HLA-B*15:17. As to the kind of experiment: IEDB peptide-MHC binding, purified MHC/competitive/fluorescence; filed as Kd, often an IC50 or EC50 that approximates it; ≥ and ≤ were set here for values at or beyond the usual limits of such assays. To be noted: source organism: Human immunodeficiency virus 1.
In experiment [20] the target is HLA-B*38:01. The description is as above. Particulars: source organism: Human immunodeficiency virus 1.
The target in experiment [21] is HLA-A*30:01. The description is as above. To be noted: source organism: Human immunodeficiency virus 1.
For experiment [22], the target named is HLA-B*08:01. The description is as above. Particulars: source organism: Human immunodeficiency virus 1.
Experiment [23] concerns the target HLA-A*01:01. The experiment is described as above. Particulars: source organism: Human immunodeficiency virus 1.
Experiment [24] addresses HLA-B*15:01. The experiment is described as above.
The target of experiment [25] is HLA-B*15:09. The description is as above.
Experiment [26] deals with HLA-B*39:01. The experiment is described as above.
Experiment [27] addresses HLA-B*35:01. Described as above. To be noted: source organism: Orthomarburgvirus marburgense.
The target in experiment [28] is HLA-A*26:02. The description is as above. Particulars: source organism: Orthomarburgvirus marburgense.
Experiment [29] concerns the target HLA-A*26:03. Nature of the experiment: IEDB peptide-MHC binding, purified MHC/direct/fluorescence; filed as Kd, often an IC50 or EC50 that approximates it; ≥ and ≤ were set here for values at or beyond the usual limits of such assays. Particulars: source organism: Orthomarburgvirus marburgense.
The target in experiment [30] is HLA-A*11:01. Described as above. Particulars: source organism: Marburg virus - Musoke, Kenya, 1980.
Experiment [31] deals with HLA-B*07:02. The experiment is described as above. To be noted: source organism: Marburg virus - Musoke, Kenya, 1980.
Experiment [32] concerns the target HLA-A*68:02. Described as above. Particulars: source organism: Marburg virus - Musoke, Kenya, 1980.
In experiment [33] the target is HLA-B*46:01. As to the kind of experiment: IEDB peptide-MHC binding, purified MHC/competitive/fluorescence; filed as Kd, often an IC50 or EC50 that approximates it; ≥ and ≤ were set here for values at or beyond the usual limits of such assays. Particulars: source organism: Cryptosporidium parvum Iowa II.
Experiment [34] addresses HLA-B*27:03. Described as above. Particulars: source organism: Cryptosporidium parvum Iowa II.
Experiment [35] addresses HLA-A*80:01. The experiment is described as above. Particulars: source organism: Cryptosporidium parvum Iowa II.
The target of experiment [36] is HLA-A*29:02. The experiment is described as above. To be noted: source organism: Cryptosporidium parvum Iowa II.
Experiment [37] has as its target HLA-B*18:01. The description is as above. To be noted: source organism: Cryptosporidium parvum Iowa II.
In experiment [38] the target is HLA-B*51:01. The description is as above. To be noted: source organism: Cryptosporidium parvum Iowa II.
Experiment [39] concerns the target HLA-A*26:01. Described as above. To be noted: source organism: Cryptosporidium parvum Iowa II.
In experiment [40] the target is HLA-B*57:01. The experiment is described as above. Particulars: source organism: Cryptosporidium parvum Iowa II.
Setting [41] is: source organism: Rickettsia canadensis.
[42] abbreviates: source organism: Human immunodeficiency virus 1.
Setting [43] is: source organism: Orthomarburgvirus marburgense.
Where [44] appears, read: source organism: Marburg virus - Musoke, Kenya, 1980.
Where [45] appears, read: source organism: Cryptosporidium parvum Iowa II.

Consider SSEADCFTY, for which the Kd is at least 20 µM in experiment [1]; at least 20 µM in experiment [2] (setting [41]); at least 20 µM in [3] (setting [41]); at least 20 µM in experiment [4] (setting [41]); at least 20 µM in experiment [5] (setting [41]); 0.0816 µM in experiment [6] (setting [41]). Besides, the dissociation constant Kd in [7] is at least 20 µM; in [8] (setting [41]) it was at least 20 µM; in [9] it was at least 20 µM; in experiment [10] (source organism: Candidatus Rickettsia tarasevichiae), at least 20 µM; in experiment [11] (setting [41]) it was at least 20 µM; in experiment [12] (setting [41]), 0.0553 µM. The Kd in experiment [13] (setting [41]), in experiment [14], in experiment [15], in experiment [16] (setting [41]), in experiment [17] and in [18] (setting [41]) was at least 20 µM in each case.
In the case of GSEEIKSLF, the Kd in experiment [19] was 0.182 µM; in [20], at least 20 µM; in experiment [21] it was at least 20 µM; in experiment [22] it was at least 20 µM; in experiment [23] it was at least 20 µM; in [24] (setting [42]), at least 20 µM. The sequence also gave a Kd in experiment [25] (setting [42]) of at least 20 µM.
With NQECWDSVF, the Kd in experiment [26] (setting [43]) was 0.364 µM; in experiment [27] it was 0.216 µM; in [28], 0.384 µM; in [25] (setting [43]) it was 2.52 µM; in [2] (setting [44]), at least 20 µM; in [29], at least 20 µM. For the same sequence, the Kd in experiment [3] (setting [44]), in experiment [4] (setting [44]), in experiment [5] (setting [44]), in [6] (setting [44]), in experiment [8] (setting [44]) and in [30] was at least 20 µM throughout. The Kd in experiment [31] was at least 20 µM; in experiment [10] (setting [43]), at least 20 µM; in experiment [11] (setting [44]), at least 20 µM; in experiment [12] (setting [44]) it was at least 20 µM; in experiment [32], at least 20 µM; in experiment [13] (setting [44]), 0.373 µM. Also, the Kd in [16] (setting [44]) and in experiment [18] (setting [44]) was at least 20 µM each time.
Turning to KLGDITLFL, the Kd in [33] was at least 20 µM; in experiment [34], at least 20 µM; in experiment [35], 0.0156 µM; in [36], 0.0341 µM; in experiment [26] (setting [45]), at least 20 µM; in [37], at least 20 µM. The Kd in [38], in [24] (setting [45]), in experiment [39] and in experiment [40] was at least 20 µM throughout.
